Test system: p53, unphosphorylated (recombinant full-length)

| Substance | in vitro kinase assay (32P incorporation, autoradiography) | phosphorylation site mapping (tryptic/Asp-N peptides, Edman degradation) | kinase assay of chromatographic fractions, Western blot with p53 Ser15-specific antibodies |
| --- | --- | --- | --- |
| ATM (A-T mutated) protein purified from HeLa cell nuclear extract | several independently purified ATM preparations were consistently found to phosphorylate p53 with high efficiency | the sites of phosphorylation correspond to p53 residues Ser-15 and Thr-18 |  |
| ATR (FRP-1) purified from HeLa nuclear extract |  |  | this residue is also phosphorylated by a kinase activity associated with ATR |
